Test results taken from US20060083713A1.

Tests used:
[1] = biological target: LP-48-FLAG fusion polypeptide (human LP-48 / IL-17C, mature, with the FLAG epitope fused to the native C-terminus) (human) (UniProt Q9P0M4); assay: HUVEC incubated with 5 ug/ml LP-48, then control antibodies and 125I-protein A (radioimmunoassay)
[2] = biological target: cell surface of HUVEC (human umbilical vein endothelial cells); LP-48 binding partner not identified (human); assay: HUVEC incubated with 5 ug/ml LP-48; bound LP-48 detected with anti-LP-48 antibodies and 125I-protein A (radioimmunoassay)

125I-Protein A Bound (CPM) [1] | 125I-Protein A Bound (CPM) [2] | Molecule
317 CPM | – | control antibodies to an unrelated protein (antibody)
– | 5630 CPM | LP-48-FLAG fusion polypeptide (human LP-48 / IL-17C, mature, with the FLAG epitope fused to the native C-terminus) (ligand) HHDPSLRGHPHSHGTPHCYSAEELPLGQAPPHLLARGAKWGQALPVALVSSLEAASHRGRHERPSATTQCPVLRPEEVLEADTHQRSISPWRYRVDTDEDRYPQKLAFAECLCRGCIDARTGRETAALNSVRLLQSLLVLRRRPCSRDGSGLPTPGAFAFHTEFIHVPVGCTCVLPRSVDYKDDDDK
